B1: CFHR1 (complement factor H-related protein 1), purified from serum (other)
chain: EATFCDFPKINHGILYDEEKYKPFSQVPTGEVFYYSCEYNFVSPSKSFWTRITCTEEGWSPTPKCLRLCFFPFVENGHSESSGQTHLEGDTVQIICNTGYRLQNNENNISCVERGWSTPPKCRSTDTSCVNPPTVQNAHILSRQMSKYPSGERVRYECRSPYEMFGDEEVMCLNGNWTEPPQCKDSTGKCGPPPPIDNGDITSFPLSVYAPASSVEYQCQNLYQLEGNKRITCRNGQWSEPPKCLHPCVISREIMENYNIALRWTAKQKLYLRTGESAEFVCKRGYRLSSRSHTLRTTCWDGKLEYPTCAKR
B2: CFHR2 (complement factor H-related protein 2), native in serum (other)
chain: EAMFCDFPKINHGILYDEEKYKPFSQVPTGEVFYYSCEYNFVSPSKSFWTRITCAEEGWSPTPKCLRLCFFPFVENGHSESSGQTHLEGDTVQIICNTGYRLQNNENNISCVERGWSTPPKCRSTISAEKCGPPPPIDNGDITSFLLSVYAPGSSVEYQCQNLYQLEGNNQITCRNGQWSEPPKCLDPCVISQEIMEKYNIKLKWTNQQKLYSRTGDIVEFVCKSGYHPTKSHSFRAMCQNGKLVYPSCEEK
notes: Native serum protein
B3: CFHR5 (complement factor H-related protein 5), wild type (other)
chain: EGTLCDFPKIHHGFLYDEEDYNPFSQVPTGEVFYYSCEYNFVSPSKSFWTRITCTEEGWSPTPKCLRMCSFPFVKNGHSESSGLIHLEGDTVQIICNTGYSLQNNEKNISCVERGWSTPPICSFTKGECHVPILEANVDAQPKKESYKVGDVLKFSCRKNLIRVGSDSVQCYQFGWSPNFPTCKGQVRSCGPPPQLSNGEVKEIRKEEYGHNEVVEYDCNPNFIINGPKKIQCVDGEWTTLPTCVEQVKTCGYIPELEYGYVQPSVPPYQHGVSVEVNCRNEYAMIGNNMITCINGIWTELPMCVATHQLKRCKIAGVNIKTLLKLSGKEFNHNSRIRYRCSDIFRYRHSVCINGKWNPEVDCTEKREQFCPPPPQIPNAQNMTTTVNYQDGEKVAVLCKENYLLPEAKEIVCKDGRWQSLPRCVESTAYCGPPPSINNGDTTSFPLSVYPPGSTVTYRCQSFYKLQGSVTVTCRNKQWSEPPRCLDPCVVSEENMNKNNIQLKWRNDGKLYAKTGDAVEFQCKFPHKAMISSPPFRAICQEGKFEYPICE
notes: Recombinant full-length protein from HEK293 cells, a dimer by size exclusion; The same id is used for native serum CFHR5 in the heterodimer experiments; also called recombinant CFHR5; wild-type CFHR5
B4: Complement factor H (CFH) (other, UniProt P08603 19-1231, looked up)
chain: EDCNELPPRRNTEILTGSWSDQTYPEGTQAIYKCRPGYRSLGNVIMVCRKGEWVALNPLRKCQKRPCGHPGDTPFGTFTLTGGNVFEYGVKAVYTCNEGYQLLGEINYRECDTDGWTNDIPICEVVKCLPVTAPENGKIVSSAMEPDREYHFGQAVRFVCNSGYKIEGDEEMHCSDDGFWSKEKPKCVEISCKSPDVINGSPISQKIIYKENERFQYKCNMGYEYSERGDAVCTESGWRPLPSCEEKSCDNPYIPNGDYSPLRIKHRTGDEITYQCRNGFYPATRGNTAKCTSTGWIPAPRCTLKPCDYPDIKHGGLYHENMRRPYFPVAVGKYYSYYCDEHFETPSGSYWDHIHCTQDGWSPAVPCLRKCYFPYLENGYNQNYGRKFVQGKSIDVACHPGYALPKAQTTVTCMENGWSPTPRCIRVKTCSKSSIDIENGFISESQYTYALKEKAKYQCKLGYVTADGETSGSITCGKDGWSAQPTCIKSCDIPVFMNARTKNDFTWFKLNDTLDYECHDGYESNTGSTTGSIVCGYNGWSDLPICYERECELPKIDVHLVPDRKKDQYKVGEVLKFSCKPGFTIVGPNSVQCYHFGLSPDLPICKEQVQSCGPPPELLNGNVKEKTKEEYGHSEVVEYYCNPRFLMKGPNKIQCVDGEWTTLPVCIVEESTCGDIPELEHGWAQLSSPPYYYGDSVEFNCSESFTMIGHRSITCIHGVWTQLPQCVAIDKLKKCKSSNLIILEEHLKNKKEFDHNSNIRYRCRGKEGWIHTVCINGRWDPEVNCSMAQIQLCPPPPQIPNSHNMTTTLNYRDGEKVSVLCQENYLIQEGEEITCKDGRWQSIPLCVEKIPCSQPPQIEHGTINSSRSSQESYAHGTKLSYTCEGGFRISEENETTCYMGKWSSPPQCEGLPCKSPPEISHGVVAHMSDSYQYGEEVTYKCFEGFGIDGPAIAKCLGEKWSHPPSCIKTDCLSLPSFENAIPMGEKKDVYKAGEQVTYTCATYYKMDGASNVTCINSRWTGRPTCRDTSCVNPPTVQNAYIVSRQMSKYPSGERVRYQCRSPYEMFGDEEVMCLNGNWTEPPQCKDSTGKCGPPPPIDNGDITSFPLSVYAPASSVEYQCQNLYQLEGNKRITCRNGQWSEPPKCLHPCVISREIMENYNIALRWTAKQKLYSRTGESVEFVCKRGYRLSSRSHTLRTTCWDGKLEYPTCAKR
B5: CFHR1345 (recombinant CFHR1 domains 3-5) (other)
chain: TSCVNPPTVQNAHILSRQMSKYPSGERVRYECRSPYEMFGDEEVMCLNGNWTEPPQCKDSTGKCGPPPPIDNGDITSFPLSVYAPASSVEYQCQNLYQLEGNKRITCRNGQWSEPPKCLHPCVISREIMENYNIALRWTAKQKLYLRTGESAEFVCKRGYRLSSRSHTLRTTCWDGKLEYPTCAKR
B6: CFHR234 (recombinant CFHR2 domains 3-4) (other)
chain: EKCGPPPPIDNGDITSFLLSVYAPGSSVEYQCQNLYQLEGNNQITCRNGQWSEPPKCLDPCVISQEIMEKYNIKLKWTNQQKLYSRTGDIVEFVCKSGYHPTKSHSFRAMCQNGKLVYPSCEEK

What was measured:
C3b [1] = target: T1, C3b (UniProt P01024 749-1663; P01024 23-667); experiment: cell-based or functional assay
[2] = target: B1; experiment: serum immunoprecipitation with anti-CFHR2, western blot with MBC125
Source text: Serum was immunoprecipitated using a specific anti-CFHR2 antibody (MBC22) and western blot analysis of the immunoprecipitated material with anti-CFHR1/2/5 antibody (MBC125) performed. […] Lane 2 and 4 represent control sera in which no anti-CFHR2 antibody was used. The detection of CFHR2-CFHR5 heterodimers was not possible due to non-specific bands in the CFHR5 region. […] Serum was immunoprecipitated using an anti-CFHR5 antibody and western blot analysis of the immunoprecipitated material with anti-CFHR1/2/5 antibody performed. […] Lane 2 and 4 represent control sera in which no anti-CFHR5 antibody was used. The detection of CFHR2-CFHR5 heterodimers was not possible due to non-specific bands in the CFHR2 region. FIG. 2(d) ELISA assay to detect CFHR2-CFHR5 heterodimers in vivo. Using an anti-CFHR5 capture antibody and an anti-CFHR2 detection antibody, positive signal was demonstrable in two individuals homozygous for the ΔCFHR3-1 deletion polymorphism. A much weaker signal was detectable in individuals without this deletion.
Detection of heterodimers CFHR1-CFHR2 and CFHR1-CFHR5 were identified by immunoprecipitation. […]

C3b [3] = target: T1, C3b; experiment: SPR steady state, thioester-coupled (clustered) C3b against amine-coupled C3b
Procedure: FIG. 9(a) Binding of CFHR5 and CFH to low levels of C3b coupled through amine groups (no clustering of C3b). CFH (from 4 μM) or CFHR5 (from 6.6 μM) were flowed across immobilized C3b (400 RU) at different concentrations. Affinity was calculated by steady state analysis. Analysis assumes a 1:1 binding interaction and for CFHR5 calculations used molarity of binding sites. FIG. 9(b) Binding to C3b coupled through the thiolester. C3b (150RU) was amine-coupled to a CM5 Biacore chip and used as a nidus for convertase formation. Further C3b was deposited on the chip surface by flowing fB and fD to form C3bBb followed by C3 as convertase substrate. […] CFH (from 4 μM) and CFHR5 (from 1.35 μM) were flowed across the surface and binding was analysed at steady state. Binding of CFH was very heterogeneous, likely due to crosslinking between multiple C3b-binding sites on fH and clusters of deposited C3b molecules. Affinity could not be calculated under these conditions. […] Data were calculated using the following values: CFH, mass 155 kDa, extinction coefficient 1.95 cm-1 (mg/mL)-1; CFHR5, mass 65 kDa, extinction coefficient 1.55 cm-1 (mg/mL)-1;
All data in FIGS. 9-11 were gathered using a Biacore T100 (GE Healthcare). […] For kinetic studies, samples were injected using the KINJECT command, in HBS/P (10 mM HEPES pH7.4, 150 mM NaCl, 0.05% surfactant-P20) flowed at 30 μl/min and analysed at 25° C. […]

[4] = target: the molecule itself; experiment: size exclusion chromatography
Source text: FIG. 3(a) Generation of a CFHR5 protein lacking critical amino acids within the dimerisation motif. Monomeric CFHR5 (CFHR5^{dimer mutant}) was generated by mutating the three stabilizing amino acids (Tyr34Ser, Ser36 Tyr, Tyr39Glu) within the dimerisation motif to the corresponding amino acids within CFH. FIG. 3(b) Analysis of recombinant CFHR5 and CFHR5^{dimer mutant} using SDS PAGE gel electrophoresis. Both the wild type and dimer mutants were purified to single homogenous species as visualized by denaturing electrophoresis. FIG. 3(c) Analysis of recombinant CFHR5 and CFHR5^{dimer mutant} using size exclusion chromatography. Size exclusion chromatography was performed on a Superdex200 10/30 column (GE Healthcare) equilibrated in 50 mM Tris.HCl, pH 7.5, 150 mM NaCl at 0.4 ml/min. The column was followed in-line by an Optilab-Rex refractive index monitor (Wyatt Technologies). The CFHR5 dimer elutes early from the column (blue trace) whilst the monomeric CFHR5^{dimer mutant} protein elutes at a larger column volume (red trace). FIG. 3(d) Interaction of CFHR5 and CFHR5^{dimer mutant} with renal-bound mouse C3 in vivo.

iC3b = target: T2, iC3b (UniProt P01024 23-667; P01024 749-1303; P01024 1321-1663); experiment: SPR steady state, iC3b on chip; reference CFHR5
T2 construct: also called thioester-coupled iC3b
T2 sequence (P01024 23-667, chain 1 of 3): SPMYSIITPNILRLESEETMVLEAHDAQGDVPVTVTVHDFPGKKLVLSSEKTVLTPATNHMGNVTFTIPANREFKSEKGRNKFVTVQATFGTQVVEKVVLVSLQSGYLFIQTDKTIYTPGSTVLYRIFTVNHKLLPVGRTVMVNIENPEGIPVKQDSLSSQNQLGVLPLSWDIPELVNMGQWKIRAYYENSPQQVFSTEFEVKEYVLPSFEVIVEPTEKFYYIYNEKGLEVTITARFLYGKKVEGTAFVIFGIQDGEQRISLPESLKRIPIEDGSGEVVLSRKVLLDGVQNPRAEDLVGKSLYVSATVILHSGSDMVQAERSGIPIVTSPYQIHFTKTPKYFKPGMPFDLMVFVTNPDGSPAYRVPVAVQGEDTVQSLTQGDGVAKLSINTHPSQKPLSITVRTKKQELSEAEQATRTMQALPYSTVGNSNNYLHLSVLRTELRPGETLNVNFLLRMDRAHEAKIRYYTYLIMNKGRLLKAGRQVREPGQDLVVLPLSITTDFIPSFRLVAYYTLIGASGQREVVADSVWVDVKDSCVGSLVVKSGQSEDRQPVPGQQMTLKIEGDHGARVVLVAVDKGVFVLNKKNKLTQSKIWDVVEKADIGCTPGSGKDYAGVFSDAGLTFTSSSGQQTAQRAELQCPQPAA
T2 sequence (P01024 749-1303, chain 2 of 3): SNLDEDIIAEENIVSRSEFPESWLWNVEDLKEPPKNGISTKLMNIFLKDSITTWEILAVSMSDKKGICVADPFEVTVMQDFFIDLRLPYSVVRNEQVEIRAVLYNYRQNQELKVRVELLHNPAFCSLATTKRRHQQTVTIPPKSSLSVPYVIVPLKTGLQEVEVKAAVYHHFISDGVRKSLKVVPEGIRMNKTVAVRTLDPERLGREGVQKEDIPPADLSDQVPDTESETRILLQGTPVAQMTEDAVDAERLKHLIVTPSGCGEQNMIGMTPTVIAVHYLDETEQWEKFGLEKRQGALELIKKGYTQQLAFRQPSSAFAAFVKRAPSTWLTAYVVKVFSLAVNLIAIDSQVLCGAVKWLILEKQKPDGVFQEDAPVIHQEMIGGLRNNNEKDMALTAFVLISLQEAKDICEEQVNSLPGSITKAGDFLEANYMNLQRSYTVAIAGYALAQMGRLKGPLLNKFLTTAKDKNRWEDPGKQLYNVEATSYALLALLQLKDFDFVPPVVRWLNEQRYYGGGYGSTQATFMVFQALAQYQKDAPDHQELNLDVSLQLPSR
T2 sequence (P01024 1321-1663, chain 3 of 3): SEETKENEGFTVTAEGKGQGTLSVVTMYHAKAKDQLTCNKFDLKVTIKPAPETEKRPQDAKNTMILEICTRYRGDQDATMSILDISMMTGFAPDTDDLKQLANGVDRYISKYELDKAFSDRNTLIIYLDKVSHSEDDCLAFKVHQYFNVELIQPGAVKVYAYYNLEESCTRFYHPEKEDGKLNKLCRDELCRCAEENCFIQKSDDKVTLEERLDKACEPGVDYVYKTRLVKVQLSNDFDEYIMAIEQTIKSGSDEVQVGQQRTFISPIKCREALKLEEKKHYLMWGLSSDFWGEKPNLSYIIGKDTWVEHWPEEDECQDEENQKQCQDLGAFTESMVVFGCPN

T1 sequence (P01024 749-1663 limits assumed, chain 1 of 2): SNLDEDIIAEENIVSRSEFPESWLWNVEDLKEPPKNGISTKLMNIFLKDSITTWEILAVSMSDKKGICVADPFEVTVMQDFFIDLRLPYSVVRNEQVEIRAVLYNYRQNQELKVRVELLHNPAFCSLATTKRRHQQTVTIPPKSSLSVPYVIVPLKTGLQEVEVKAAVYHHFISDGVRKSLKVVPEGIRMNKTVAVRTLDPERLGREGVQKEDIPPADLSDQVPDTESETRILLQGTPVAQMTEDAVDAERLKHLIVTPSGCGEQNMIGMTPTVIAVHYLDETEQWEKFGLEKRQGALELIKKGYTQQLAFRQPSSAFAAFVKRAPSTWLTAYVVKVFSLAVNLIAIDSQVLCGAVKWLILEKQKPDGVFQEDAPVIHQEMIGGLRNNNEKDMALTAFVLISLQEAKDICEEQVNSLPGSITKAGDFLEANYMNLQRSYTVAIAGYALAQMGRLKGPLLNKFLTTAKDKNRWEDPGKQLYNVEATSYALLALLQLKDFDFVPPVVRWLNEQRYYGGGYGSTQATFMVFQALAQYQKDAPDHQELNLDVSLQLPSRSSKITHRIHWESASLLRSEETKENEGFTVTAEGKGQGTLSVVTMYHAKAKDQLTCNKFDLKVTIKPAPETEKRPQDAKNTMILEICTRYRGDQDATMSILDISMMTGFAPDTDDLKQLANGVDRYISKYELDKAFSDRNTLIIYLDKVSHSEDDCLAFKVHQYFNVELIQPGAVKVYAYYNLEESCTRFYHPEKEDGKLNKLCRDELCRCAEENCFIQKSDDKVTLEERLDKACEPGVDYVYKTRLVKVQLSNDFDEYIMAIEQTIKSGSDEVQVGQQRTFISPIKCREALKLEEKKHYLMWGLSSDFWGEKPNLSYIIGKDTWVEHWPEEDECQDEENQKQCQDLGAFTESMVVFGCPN
T1 sequence (P01024 23-667 limits assumed, chain 2 of 2): as the sequence (P01024 23-667, chain 1 of 3) above

Binder | IC50, dose-dependent increase of lysis in the CFH-dependent alternative pathway haemolytic assay (guinea-pig erythrocytes, 20% normal human serum plus CFH) (C3b [1]) [nM] | further results
B1 | 700 | –
B2 | – | binding result [2]: binds
B3 | 150 | fold tighter binding to thioester-coupled C3b than to amine-coupled C3b (C3b [3]): 10 fold; binding result [4]: binds
B4 | – | fold weaker binding than CFHR5 (iC3b): 10 fold
B5 | 3600 | –
B6 | 4700 | –

Source: US20150361183A1 (IMPERIAL INNOVATIONS, published 2015)
